Drawing on article PMC10397247, this text covers interaction score for six molecules.

Holding throughout (assay): two-hybrid library CCNG1;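 also: natural log of median RNA to DNA barcode read ratio; higher means stronger binding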
One experiment deals with T1, O15-bN.
T1 chain: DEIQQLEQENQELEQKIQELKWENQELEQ

The target in a further experiment is T2, O16-bN.
T2 chain: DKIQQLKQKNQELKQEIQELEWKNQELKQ

In another experiment the target is T3, O2-bN.
T3 chain: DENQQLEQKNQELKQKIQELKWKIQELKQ

In a further experiment the target is T4, O3-bN.
T4 chain: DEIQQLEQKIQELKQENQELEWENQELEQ

The target of the next experiment is T5, O4-bN.
T5 chain: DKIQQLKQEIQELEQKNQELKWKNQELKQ

The target of another experiment is T6, O5-bN.
T6 chain: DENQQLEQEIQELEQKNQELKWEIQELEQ

The target in the next experiment is T7, O6-bN.
T7 chain: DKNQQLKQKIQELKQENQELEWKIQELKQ

For another experiment, the target named is T8, O7-bN.
T8 chain: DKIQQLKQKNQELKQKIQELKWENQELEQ

The target in the next experiment is T9, O8-bN.
T9 chain: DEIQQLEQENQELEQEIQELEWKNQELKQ

For a further experiment, the target named is T10, O9-bN.
T10 chain: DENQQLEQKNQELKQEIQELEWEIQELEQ

The target of another experiment is T11, 4H338-bA.
T11 chain: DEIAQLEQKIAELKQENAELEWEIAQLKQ

The next experiment addresses T12, 4H3427-bA.
T12 chain: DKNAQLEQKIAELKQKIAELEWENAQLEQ

The next experiment concerns the target T13, 4H3782-bA.
T13 chain: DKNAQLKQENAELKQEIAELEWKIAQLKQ

The next experiment has as its target T14, 4H3855-bA.
T14 chain: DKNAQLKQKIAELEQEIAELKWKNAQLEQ

Another experiment has as its target T15, 4H4001-bA.
T15 chain: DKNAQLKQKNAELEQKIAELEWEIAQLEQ

A further experiment has as its target T16, 4H454-bA.
T16 chain: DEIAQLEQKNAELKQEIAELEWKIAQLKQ

The target in another experiment is T17, 4H568-bA.
T17 chain: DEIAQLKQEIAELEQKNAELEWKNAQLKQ

For the next experiment, the target named is T18, 4H607-bA.
T18 chain: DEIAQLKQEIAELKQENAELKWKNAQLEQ

The target in another experiment is T19, 4H687-bA.
T19 chain: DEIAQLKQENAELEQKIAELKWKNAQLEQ

Another experiment addresses T20, 4H717-bA.
T20 chain: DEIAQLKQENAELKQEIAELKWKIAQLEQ

The target of the next experiment is T21, 4H72-bA.
T21 chain: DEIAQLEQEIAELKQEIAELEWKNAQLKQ

For the next experiment, the target named is T22, 4H754-bA.
T22 chain: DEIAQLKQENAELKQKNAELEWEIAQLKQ

In a further experiment the target is T23, 4H797-bA.
T23 chain: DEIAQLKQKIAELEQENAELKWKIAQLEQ

A further experiment addresses T24, 4H883-bA.
T24 chain: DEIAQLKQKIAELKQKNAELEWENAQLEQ

The target of the next experiment is T25, 4H908-bA.
T25 chain: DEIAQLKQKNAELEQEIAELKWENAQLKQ

The target of a further experiment is T26, 4H918-bA.
T26 chain: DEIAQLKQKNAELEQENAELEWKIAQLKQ

The target of another experiment is T27, 4H953-bA.
T27 chain: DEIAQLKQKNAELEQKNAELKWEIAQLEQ

In the next experiment the target is T28, 4H967-bA.
T28 chain: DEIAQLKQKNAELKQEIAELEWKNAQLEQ

In another experiment the target is T29, O15-bH.
T29 chain: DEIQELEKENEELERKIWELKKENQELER

The next experiment deals with T30, P7mS.
T30 chain: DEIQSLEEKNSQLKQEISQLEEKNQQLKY

The target in a further experiment is T31, P8mS.
T31 chain: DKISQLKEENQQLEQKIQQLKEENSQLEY

Another experiment has as its target T32, P9mS.
T32 chain: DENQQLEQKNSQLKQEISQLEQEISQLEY

The next experiment has as its target T33, 4H2503-bA.
T33 chain: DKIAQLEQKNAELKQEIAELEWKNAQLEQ

A further experiment deals with T34, 4H2588-bA.
T34 chain: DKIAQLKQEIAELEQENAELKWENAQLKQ

A further experiment has as its target T35, 4H2692-bA.
T35 chain: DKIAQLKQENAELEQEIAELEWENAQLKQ

A further experiment deals with T36, 4H2717-bA.
T36 chain: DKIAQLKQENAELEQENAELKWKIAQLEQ

A further experiment deals with T37, 4H2839-bA.
T37 chain: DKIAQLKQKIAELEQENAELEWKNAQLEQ

Another experiment deals with T38, 4H2915-bA.
T38 chain: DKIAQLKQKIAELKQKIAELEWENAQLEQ

The next experiment concerns the target T39, 4H3057-bA.
T39 chain: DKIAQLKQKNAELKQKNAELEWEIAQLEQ

The target of a further experiment is T40, 4H3162-bH.
T40 chain: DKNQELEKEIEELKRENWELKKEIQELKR

The target of a further experiment is T41, 4H319-bA.
T41 chain: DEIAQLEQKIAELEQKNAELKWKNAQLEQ

In the next experiment the target is T42, 4H3277-bA.
T42 chain: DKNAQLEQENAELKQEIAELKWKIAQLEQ

Another experiment concerns the target T43, 4H348-bA.
T43 chain: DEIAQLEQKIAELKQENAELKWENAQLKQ

A further experiment has as its target T44, 4H40-bA.
T44 chain: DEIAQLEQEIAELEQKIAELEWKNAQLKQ

The target of a further experiment is T45, 4H477-bA.
T45 chain: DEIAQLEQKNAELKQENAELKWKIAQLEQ

The target in another experiment is T46, 4H492-bA.
T46 chain: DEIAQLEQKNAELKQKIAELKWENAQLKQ

The target in the next experiment is T47, 4H741-bA.
T47 chain: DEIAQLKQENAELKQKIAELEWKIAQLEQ

B1: O14-bN (peptide)
chain: DENQQLEQEIQELEQENQELEWKIQELKQ
B1: the interaction score with O15-bN was -0.117; in the experiment with O16-bN, 1.69; in the experiment with O2-bN, 0.0465; with O3-bN, 0.477; with O4-bN, -1.01; in the experiment with O5-bN it was -0.308. For the same molecule, the interaction score was 0.642 with O6-bN, 1.78 in the experiment with O7-bN, -1.68 in the experiment with O8-bN and -0.149 with O9-bN.

B2: 4H338-bA (peptide)
chain: DEIAQLEQKIAELKQENAELEWEIAQLKQ
For B2, the interaction score is 0.363 in the experiment with 4H338-bA; 0.0707 with 4H3427-bA; -0.133 with 4H3782-bA; -0.445 in the experiment with 4H3855-bA; 0.217 with 4H4001-bA; 2.01 in the experiment with 4H454-bA. Besides, the interaction score with 4H568-bA was 0.415; with 4H607-bA, -0.707; with 4H687-bA it was -1.18; in the experiment with 4H717-bA, -0.573; in the experiment with 4H72-bA, -0.139; in the experiment with 4H754-bA, -0.95. Besides, the interaction score with 4H797-bA was -0.317; with 4H883-bA, -0.973; in the experiment with 4H908-bA, -0.695; in the experiment with 4H918-bA, -1.39; with 4H953-bA, -0.0976; with 4H967-bA, 0.424. In the experiment with O15-bH, the interaction score stood at 0.0935.

B3: O15-bN (peptide)
chain: DEIQQLEQENQELEQKIQELKWENQELEQ
On to B3, for which the interaction score in the experiment with O15-bN is -0.195; with O16-bN, 1.92; in the experiment with O2-bN it was -1.5; with O3-bN, -0.189; with O4-bN it was 0.275; with O5-bN, -0.822. In addition, the interaction score with O6-bN was -0.314; in the experiment with O7-bN, 1.29; with O8-bN, -1.62; with O9-bN it was -0.491.

B4: P7mS (peptide)
chain: DEIQSLEEKNSQLKQEISQLEEKNQQLKY
B4: the interaction score in the experiment with P7mS is -0.531; with P8mS it was 1.28; with P9mS it was 0.076.

B5: 4H2503-bA (peptide)
chain: DKIAQLEQKNAELKQEIAELEWKNAQLEQ
Consider B5, for which the interaction score was -0.591 in the experiment with 4H2503-bA; -0.447 in the experiment with 4H2588-bA; 0.466 in the experiment with 4H2692-bA; -0.684 in the experiment with 4H2717-bA; -0.791 with 4H2839-bA; -0.804 in the experiment with 4H2915-bA. For the same molecule, the interaction score was -0.42 with 4H3057-bA; -2.22 with 4H3162-bH; -1.63 with 4H319-bA; -0.659 in the experiment with 4H3277-bA; -1.13 in the experiment with 4H348-bA; -0.475 with 4H40-bA. The interaction score with 4H477-bA is -0.816; in the experiment with 4H492-bA, -0.351; with 4H687-bA it was 1.12; in the experiment with 4H741-bA, -0.407.

B6: O13-bN (peptide)
chain: DKNQQLKQKIQELKQKNQELKWEIQELEQ
Regarding B6, the interaction score was -0.801 with O15-bN; -1.23 in the experiment with O16-bN; -1.79 with O2-bN; -0.827 in the experiment with O3-bN; -2.32 with O4-bN; -2.42 with O5-bN. For the same molecule, the interaction score with O6-bN is -0.733; with O7-bN it was -1.39; in the experiment with O8-bN, -1.07; with O9-bN, -1.61.
